# Earlier results as cited in US20060241020A1, “Protein tyrosine phosphatase inhibitors” (Applied Research Systems ARS Holdings N.V., priority 2002, published 2006).
# Square brackets hold non-standard residues; d marks the D form. Ends that are not written are not given here. pY = N[C@@H](Cc1ccc(OP(=O)(O)O)cc1)C(=O)O
# Biological target: SHP1 (Homo sapiens, UniProt P29350)
# Details: classification of Wang Peng et al. (68); cited from earlier work
# SHP1, sequence (P29350 whole entry): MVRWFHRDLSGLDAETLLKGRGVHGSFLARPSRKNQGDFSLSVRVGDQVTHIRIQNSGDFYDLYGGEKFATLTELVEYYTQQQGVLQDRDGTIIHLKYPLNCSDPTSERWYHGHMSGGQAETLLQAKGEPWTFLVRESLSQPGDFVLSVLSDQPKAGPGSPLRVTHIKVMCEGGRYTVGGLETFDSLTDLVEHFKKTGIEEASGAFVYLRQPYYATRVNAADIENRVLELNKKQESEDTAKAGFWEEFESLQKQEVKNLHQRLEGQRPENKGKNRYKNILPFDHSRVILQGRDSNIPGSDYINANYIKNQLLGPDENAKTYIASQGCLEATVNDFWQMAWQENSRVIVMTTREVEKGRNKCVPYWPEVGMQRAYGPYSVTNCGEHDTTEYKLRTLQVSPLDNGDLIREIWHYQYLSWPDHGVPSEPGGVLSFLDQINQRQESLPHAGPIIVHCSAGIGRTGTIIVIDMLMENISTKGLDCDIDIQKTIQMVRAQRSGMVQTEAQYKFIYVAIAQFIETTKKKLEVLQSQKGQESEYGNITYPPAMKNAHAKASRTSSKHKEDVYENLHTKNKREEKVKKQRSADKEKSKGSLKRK
substance,measurement,value
"RNNEFpYA-NH2 (RNNEF[pY]A-NH2; N-terminus assumed; SMILES C[C@H](NC(=O)[C@H](Cc1ccc(OP(=O)(O)O)cc1)NC(=O)[C@H](Cc1ccccc1)NC(=O)[C@H](CCC(=O)O)NC(=O)[C@H](CC(N)=O)NC(=O)[C@H](CC(N)=O)NC(=O)[C@@H](N)CCCNC(=N)N)C(N)=O) [SHP-1 peptide of Wang Peng et al., excluded from the invention]",Substrate class for SHP-1,class 3
